Biological target: LPD-3 (C-terminally tagged, from lpd3::mvenus worms) (C. elegans, UniProt A0A0K3AWP8 1-4022)
Test: affinity purification with mass spectrometry

B1: Spigot (natural protein, C. elegans, UniProt Q4W5H0 1-276, looked up)
chain: MRIFVFDGTSVIYVCAVIILILIWVAIIGQRQIWRHRHNVARVRPQVSLSSRISSKKAVLLRETQLDTVMRLRCENQARLTDCISLQFHGEKPYVHRMIAVDEVTLEIDGQLNRIEGAVQRQAGESTYSYLKRIREKVPSIPLNLVHRIAFLQESARFRPEKFDVEQVMELRSLLNQFLRILSAEYDSLSDEPDMAAPRGVIASFYQFGQKIMPNNSGSKRRRNKFGGSDGVRLLMKEREEQLSLLSPLARASADSPAPAAHLRRQSDSHSALLPQ
B1: binds.

Reference: publication doi:10.1101/2024.06.21.600134 (bioRxiv, 2024)
